Experiments:
Experiment in all cases: SPR, Fab over captured mutant LAG-3-Fc;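 further: fc fusion variants captured on anti-human IgG Fc sensor, Fab injected with association then dissociation phases, KD obtained from Langmuir one-to-one fit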
[1] = target: T1, human LAG-3 domain 1-2 Fc fusion, point mutation #65 R125A (human, UniProt P18627 23-266)
T1 construct: not shown: human IgG1 Fc, AA P101-K330
T1 sequence: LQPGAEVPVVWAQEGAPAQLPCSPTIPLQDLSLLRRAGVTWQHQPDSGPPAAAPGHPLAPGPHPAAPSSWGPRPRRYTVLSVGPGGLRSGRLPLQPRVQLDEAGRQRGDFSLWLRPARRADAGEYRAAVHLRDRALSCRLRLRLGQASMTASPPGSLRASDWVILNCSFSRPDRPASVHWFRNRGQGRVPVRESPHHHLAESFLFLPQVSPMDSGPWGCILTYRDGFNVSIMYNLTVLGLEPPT

[2] = target: T2, human LAG-3 domain 1-2 Fc fusion, point mutation #56 G112A (human, UniProt P18627 23-266)
T2 construct: not shown: human IgG1 Fc, AA P101-K330
T2 sequence: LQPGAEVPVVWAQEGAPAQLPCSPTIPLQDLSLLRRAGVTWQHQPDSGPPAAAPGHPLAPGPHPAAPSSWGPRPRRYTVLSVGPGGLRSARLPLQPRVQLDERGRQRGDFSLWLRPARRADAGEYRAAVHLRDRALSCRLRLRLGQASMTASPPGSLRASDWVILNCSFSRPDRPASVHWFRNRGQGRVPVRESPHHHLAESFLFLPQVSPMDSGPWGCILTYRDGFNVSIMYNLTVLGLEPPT

[3] = target: T3, human LAG-3 domain 1-2 Fc fusion, point mutation #60 P118A (human, UniProt P18627 23-266)
T3 construct: not shown: human IgG1 Fc, AA P101-K330
T3 sequence: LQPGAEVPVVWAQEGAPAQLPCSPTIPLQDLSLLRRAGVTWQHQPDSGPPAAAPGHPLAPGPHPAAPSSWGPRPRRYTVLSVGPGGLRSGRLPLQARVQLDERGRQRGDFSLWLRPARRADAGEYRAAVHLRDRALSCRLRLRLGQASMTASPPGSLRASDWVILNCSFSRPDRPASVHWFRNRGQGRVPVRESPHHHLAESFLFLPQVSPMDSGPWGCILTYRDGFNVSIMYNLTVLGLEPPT

[4] = target: T4, human LAG-3 domain 1-2 Fc fusion, point mutation #58 P115A (human, UniProt P18627 23-266)
T4 construct: not shown: human IgG1 Fc, AA P101-K330
T4 sequence: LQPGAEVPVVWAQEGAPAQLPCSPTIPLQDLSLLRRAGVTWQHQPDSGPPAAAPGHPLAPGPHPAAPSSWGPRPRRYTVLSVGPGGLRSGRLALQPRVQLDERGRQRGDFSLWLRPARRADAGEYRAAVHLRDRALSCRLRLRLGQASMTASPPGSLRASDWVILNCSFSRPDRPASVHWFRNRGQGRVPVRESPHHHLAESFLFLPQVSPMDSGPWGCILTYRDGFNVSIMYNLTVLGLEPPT

[5] = target: T5, human LAG-3 domain 1-2 Fc fusion, point mutation #45 R98A (human, UniProt P18627 23-266)
T5 construct: not shown: human IgG1 Fc, AA P101-K330
T5 sequence: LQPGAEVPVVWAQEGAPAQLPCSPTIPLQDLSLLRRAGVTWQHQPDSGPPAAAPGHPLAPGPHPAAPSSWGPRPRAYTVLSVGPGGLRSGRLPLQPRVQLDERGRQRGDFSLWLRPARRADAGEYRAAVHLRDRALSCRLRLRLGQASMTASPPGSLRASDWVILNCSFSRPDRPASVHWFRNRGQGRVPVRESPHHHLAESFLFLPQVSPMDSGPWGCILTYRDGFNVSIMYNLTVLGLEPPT

[6] = target: T6, human LAG-3 domain 1-2 Fc fusion, point mutation #30 G83A (human, UniProt P18627 23-266)
T6 construct: not shown: human IgG1 Fc, AA P101-K330
T6 sequence: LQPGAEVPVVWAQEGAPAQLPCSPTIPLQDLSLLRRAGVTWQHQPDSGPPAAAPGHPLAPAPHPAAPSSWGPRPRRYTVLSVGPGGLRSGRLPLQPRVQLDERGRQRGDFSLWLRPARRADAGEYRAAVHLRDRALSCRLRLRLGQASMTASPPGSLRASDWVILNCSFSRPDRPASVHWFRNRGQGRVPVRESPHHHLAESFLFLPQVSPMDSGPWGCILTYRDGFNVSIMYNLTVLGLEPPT

[7] = target: T7, human LAG-3 domain 1-2 Fc fusion, point mutation #53 L109A (human, UniProt P18627 23-266)
T7 construct: not shown: human IgG1 Fc, AA P101-K330
T7 sequence: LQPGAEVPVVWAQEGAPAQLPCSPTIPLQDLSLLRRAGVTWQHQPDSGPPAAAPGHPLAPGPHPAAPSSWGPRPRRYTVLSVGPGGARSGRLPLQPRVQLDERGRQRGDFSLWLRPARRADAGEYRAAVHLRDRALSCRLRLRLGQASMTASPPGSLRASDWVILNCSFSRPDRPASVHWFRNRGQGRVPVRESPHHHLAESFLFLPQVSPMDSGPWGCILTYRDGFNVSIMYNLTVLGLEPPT

[8] = target: T8, human LAG-3 domain 1-2 Fc fusion, point mutation #68 Q128A (human, UniProt P18627 23-266)
T8 construct: not shown: human IgG1 Fc, AA P101-K330
T8 sequence: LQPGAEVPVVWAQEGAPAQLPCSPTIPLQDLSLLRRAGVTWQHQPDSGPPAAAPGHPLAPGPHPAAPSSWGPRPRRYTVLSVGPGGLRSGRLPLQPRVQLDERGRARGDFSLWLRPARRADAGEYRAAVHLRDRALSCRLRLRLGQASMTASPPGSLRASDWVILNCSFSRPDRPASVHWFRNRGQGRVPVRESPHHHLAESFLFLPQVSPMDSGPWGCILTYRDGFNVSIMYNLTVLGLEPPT

[9] = target: T9, human LAG-3 domain 1-2 Fc fusion, point mutation #23 P76A (human, UniProt P18627 23-266)
T9 construct: not shown: human IgG1 Fc, AA P101-K330
T9 sequence: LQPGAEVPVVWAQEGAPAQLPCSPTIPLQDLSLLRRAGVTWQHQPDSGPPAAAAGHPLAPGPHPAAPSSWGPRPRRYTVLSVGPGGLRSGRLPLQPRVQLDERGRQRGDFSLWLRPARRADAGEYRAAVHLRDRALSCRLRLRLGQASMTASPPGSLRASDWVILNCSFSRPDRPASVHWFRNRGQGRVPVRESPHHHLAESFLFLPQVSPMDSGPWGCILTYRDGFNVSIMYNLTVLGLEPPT

Binder	KD mutant/KD wild type [1] [fold]	KD mutant/KD wild type [2] [fold]	KD mutant/KD wild type [3] [fold]	KD mutant/KD wild type [4] [fold]	KD mutant/KD wild type [5] [fold]	KD mutant/KD wild type [6] [fold]	KD mutant/KD wild type [7] [fold]	KD mutant/KD wild type [8] [fold]	KD mutant/KD wild type [9] [fold]	binding result [5]
Fab fragment of antibody 15011 (Fab, V domains shown, not shown: a dimerising Fc or GST, monomeric Fab made by GingisKHAN digestion of the IgG1) VH: EVQLLESGGGLVQPGGSLRLSCAASGFDFRSYAMMWVRQAPGKGLEWVGGINGEVGGSNTYYAPAVKGRATISRDNSKNTLYLQMNSLRAEDTAVYYCVKGAGACGICNDDIDAWGQGTLVTVSS VL: SYELTQDPAVSVALGQTVRITCSGAGSYAGSYYYGWHQQKPGQAPVTVIYDNDKRPSNIPDRFSGSSSGNTASLTITGAQAEDEADYYCGSTNDNDDGGLFGSGTKVTVLG	1.1	3.1	1.2	1.3	1.2	0.7	84.2	1	0.8	
Fab fragment of antibody 15532 (Fab, V domains shown, not shown: a dimerising Fc or GST, monomeric Fab made by GingisKHAN digestion of the IgG1) VH: QVQLQQWGAGLLRPSETLSLTCAVYGESFSGYYWNWIRQPPGKGLEWIGEINHSGSTNYNPSLKSRVTISVDTSKTQFSLKLSSVTAADTAVYYCARGWDLLDWNDYWNEYWGQGTLVTVSS VL: EIVLTQSPATLSLSPGERATLSCRASQSVSSYLAWYQQKPGQAPRLLIYDASNRATGIPARFSGSGSGTDFTLTISSLEPEDFAVYYCQQRSNWPLTFGGGTKVEIKR	0.9	1	0.7	1	1.6	1.1	1.1	0.7	1	
Fab fragment of antibody 15431 (Fab, V domains shown, not shown: a dimerising Fc or GST, monomeric Fab made by GingisKHAN digestion of the IgG1) VH: QVQLQQSGPGLVKPSQTLSLTCAISGDSVSSNSAAWNWIRQSPSRGLEWLGRTYYRSKWYNDYAVSVKSRITINPDTSKNQFSLQLNSVTPEDTAVYYCARDDDWNDFDYWGQGTLVTVSS VL: EIVLTQSPATLSLSPGERATLSCRASQSVSSYLAWYQQKPGQAPRLLIYDASNRATGIPARFSGSGSGTDFTLTISSLEPEDFAVYYCQQRSNWPLTFGGGTKVEIKR	1.1	0.5	1	1.1		0.5	1	0.8	0.7	no binding (tested: 300 nM)
Fab fragment of antibody 15572 (Fab, V domains shown, not shown: a dimerising Fc or GST, monomeric Fab made by GingisKHAN digestion of the IgG1) VH: QLQLQESGPGLVKPSETLSLTCTVSGDSISSSSYYWGWIRQPPGKGLEWIGSIFYSGNTYYNPSLKSRVTISVDTSKNQFSLKLSSVTAADTAVYYCAREDDFLTDYYGAFDIWGQGTMVTVSS VL: not shown	1.1	0.5	0.9	1.4	0.9	0.5	1	0.9	0.6	

Reference: patent publication US20220363757A1 (SYMPHOGEN A S, published 2022)
